Source: PMC12733253, “NFE2 Truncation Mutants Protect Wild-Type NFE2 from ITCH-Dependent Degradation” (International Journal of Molecular Sciences, 2025)

Biological target: itchy E3 ubiquitin protein ligase (ITCH), wild type, MYC-tagged (UniProt Q96J02-2 1-862)
Assay: cell-based or functional assay

itchy E3 ubiquitin protein ligase (ITCH), wild type, MYC-tagged, sequence (Q96J02 other isoform, or with tags, fused parts or gaps): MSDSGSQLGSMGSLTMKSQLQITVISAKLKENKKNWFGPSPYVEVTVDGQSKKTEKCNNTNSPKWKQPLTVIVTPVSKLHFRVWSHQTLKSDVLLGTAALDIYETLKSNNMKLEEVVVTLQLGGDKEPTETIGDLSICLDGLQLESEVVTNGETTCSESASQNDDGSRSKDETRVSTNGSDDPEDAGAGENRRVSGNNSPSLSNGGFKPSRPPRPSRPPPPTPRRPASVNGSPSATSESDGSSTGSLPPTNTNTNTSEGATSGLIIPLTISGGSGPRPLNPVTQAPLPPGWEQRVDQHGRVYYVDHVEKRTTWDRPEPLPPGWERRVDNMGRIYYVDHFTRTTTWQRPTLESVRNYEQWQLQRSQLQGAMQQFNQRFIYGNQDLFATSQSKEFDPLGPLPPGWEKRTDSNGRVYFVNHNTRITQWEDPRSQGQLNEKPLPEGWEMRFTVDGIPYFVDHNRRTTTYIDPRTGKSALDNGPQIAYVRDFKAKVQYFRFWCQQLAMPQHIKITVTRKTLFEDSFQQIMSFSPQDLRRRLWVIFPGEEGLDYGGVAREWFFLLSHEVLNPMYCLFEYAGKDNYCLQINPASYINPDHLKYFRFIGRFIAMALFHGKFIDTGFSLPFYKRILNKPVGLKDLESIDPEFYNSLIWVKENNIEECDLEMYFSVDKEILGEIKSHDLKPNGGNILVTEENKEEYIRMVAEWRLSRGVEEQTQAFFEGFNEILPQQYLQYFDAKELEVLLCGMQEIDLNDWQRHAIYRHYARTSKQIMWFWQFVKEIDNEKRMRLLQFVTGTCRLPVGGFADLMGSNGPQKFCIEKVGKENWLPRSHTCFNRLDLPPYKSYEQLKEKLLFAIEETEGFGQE

NFE2 half-life in a cycloheximide chase, HEK-293T co-transfected with wt NFE2 and wt ITCH (approximately 3.5 h with empty vector; 6.5 h with inactive ITCH-C830A): ~2 h
B1: wild-type nuclear factor erythroid 2 (NFE2), HA-tagged (natural protein, human, UniProt Q16621 1-373, looked up)
chain: MSPCPPQQSRNRVIQLSTSELGEMELTWQEIMSITELQGLNAPSEPSFEPQAPAPYLGPPPPTTYCPCSIHPDSGFPLPPPPYELPASTSHVPDPPYSYGNMAIPVSKPLSLSGLLSEPLQDPLALLDIGLPAGPPKPQEDPESDSGLSLNYSDAESLELEGTEAGRRRSEYVEMYPVEYPYSLMPNSLAHSNYTLPAAETPLALEPSSGPVRAKPTARGEAGSRDERRALAMKIPFPTDKIVNLPVDDFNELLARYPLTESQLALVRDIRRRGKNKVAAQNCRKRKLETIVQLERELERLTNERERLLRARGEADRTLEVMRQQLTELYRDIFQHLRDESGNSYSPEEYALQQAADGTIFLVPRGTKMEATD
